Patent US20140221287A1 (AstraZeneca / MedImmune, published 2014)
No end group written: not given here.

T1: human amylin receptor 3 (AMY3) (human, UniProt P30988 25-474; O60896 24-148)
T1 sequence (looked up) 1: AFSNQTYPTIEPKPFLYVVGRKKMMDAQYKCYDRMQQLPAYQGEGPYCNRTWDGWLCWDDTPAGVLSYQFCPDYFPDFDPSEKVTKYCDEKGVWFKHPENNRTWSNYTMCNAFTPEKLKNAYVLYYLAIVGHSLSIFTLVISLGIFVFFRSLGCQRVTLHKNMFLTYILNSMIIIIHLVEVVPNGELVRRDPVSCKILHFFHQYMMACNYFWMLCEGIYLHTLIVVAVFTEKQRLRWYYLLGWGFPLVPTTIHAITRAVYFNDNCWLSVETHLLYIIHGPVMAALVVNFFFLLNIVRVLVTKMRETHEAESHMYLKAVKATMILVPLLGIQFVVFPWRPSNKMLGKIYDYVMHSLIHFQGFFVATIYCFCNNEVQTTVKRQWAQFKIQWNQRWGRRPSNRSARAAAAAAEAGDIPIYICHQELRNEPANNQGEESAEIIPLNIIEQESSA
T1 sequence (looked up) 2: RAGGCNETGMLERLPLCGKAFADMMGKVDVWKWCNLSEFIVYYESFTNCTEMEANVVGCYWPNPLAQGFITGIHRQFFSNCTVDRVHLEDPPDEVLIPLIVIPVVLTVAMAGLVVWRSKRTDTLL


Legend:
[1] = molecular target: T1, human amylin receptor 3 (AMY3); test: cell-based or functional assay
[2] = molecular target: T2, amylin receptor in membranes prepared from the nucleus accumbens portion of the brain (rat) (rat); test: displacement of 125I-rat amylin from rat nucleus accumbens membranes
T2 construct: whole, on cells; Native tissue membranes
Protocol: Plate was incubated for 1 hour at room temperature on a shaker. Plate was dried for 1.5 hours at 50° C., then overnight at room temperature.
Receptor binding activity can be expressed, for example in Table 3, as an IC₅₀ value, calculated from the raw data using an iterative curve-fitting program using a 4-parameter logistic equation (PRISM®, GraphPAD Software, La Jolla, Calif.), as known in the art.

[3] = molecular target: T1, human amylin receptor 3 (AMY3); test: displacement of 125I-rat amylin from crude membranes of HEK293 cells expressing human AMY3 (hCalcR + RAMP3)
Protocol: The crude membranes were incubated with 20 pM ¹²⁵I. (Perkin Elmer Cat#NEX4480) (2000 Ci/mmol) and increasing concentration of test peptide. […] The Unifilter® plates were washed several times using ice cold PBS using a MicroMate 96 Cell Harvester (Perkin Elmer).
The potency (IC₅₀) of test peptide was determined by the analysis of a concentration-response curve using non-linear regression analysis fitted to a 4-parameter curve. Binding affinities were calculated using GraphPad Prism® software (GraphPad Software, Inc., San Diego, Calif.).

| Binder | EC50 (nM), cAMP accumulation (HTRF) [1] [nM] | IC50 [2] [nM] | IC50 [3] [nM] |
| --- | --- | --- | --- |
| CNTATCATQRLANFLVHSSNNFGPK(mPEG40KD)LPPTNVGSNTY-NH2 (ends and bridges not checked, also called Compound 29) [Cmpd 29, [K^26(mPEG40KD)]-Cmpd 12] | 0.114 | 39 | 60 |
| CNTATCATQRLANFLVHSSK(mPEG40KD)NFGPILPPTNVGSNTY-NH2 (ends and bridges not checked, also called Compound 28) [Cmpd 28, [K^21(mPEG40KD)]-Cmpd 11] | 2.58 | 131 | 388 |
| CNTATCATQRLANFLVHSSNNFGPILPPTK(mPEG40KD)VGSNTY-NH2 (ends and bridges not checked, also called Compound 30) [Cmpd 30, [K^31(mPEG40KD)]-Cmpd 13] | 0.145 | 61 | 80 |
| CNTATCATQRLANFLVHSSNNFK(mPEG40KD)PILPPTNVGSNTY-NH2 (ends and bridges not checked, also called Compound 32) [Cmpd 32, [K^24(mPEG40KD)]-Cmpd 14] | 0.598 | 79 | 111 |
| CNTATCATQRLANFLVHSSNNFGK(mPEG40KD)ILPPTNVGSNTY-NH2 (ends and bridges not checked, also called Compound 33) [Cmpd 33, [K^25(mPEG40KD)]-Cmpd 15] | 0.126 | 31 | 48 |
| CNTATCATQRLANFLVHSSNNFGPIK(mPEG40KD)PPTNVGSNTY-NH2 (ends and bridges not checked, also called Compound 34) [Cmpd 34, [K^27(mPEG40KD)]-Cmpd 16] | 0.296 | 51 | 87 |
| CNTATCATQRLANFLVHSSNNFGPILK(mPEG40KD)PTNVGSNTY-NH2 (ends and bridges not checked, also called Compound 35) [Cmpd 35, [K^28(mPEG40KD)]-Cmpd 17] | 0.295 | 53 | 46 |
| CNTATCATQRLANFLVHSSNNFGPILPK(mPEG40KD)TNVGSNTY-NH2 (ends and bridges not checked, also called Compound 36) [Cmpd 36, [K^29(mPEG40KD)]-Cmpd 18] | 0.159 | 27 | 47 |
| CNTATCATQRLANFLVK(mPEG40KD)SSNNFGPILPPTNVGSNTY-NH2 (ends and bridges not checked, also called Compound 40) [Cmpd 40, [K^18(mPEG40KD)]-Cmpd 37] | 0.85 |  | 238 |
| CNTATCATQRLANFLVHSSNNFGPILPPTNVGK(mPEG40KD)NTY-NH2 (ends and bridges not checked, also called Compound 41) [Cmpd 41, [K^34(mPEG40KD)]-Cmpd 38] | 0.034 |  | 77 |
| CNTATCATQRLANFLVHSSNNFGPILPPTNVGSK(mPEG40KD)TY-NH2 (ends and bridges not checked, also called Compound 42) [Cmpd 42, [K^35(mPEG40KD)]-Cmpd 39] | 0.122 |  | 143 |
| CNTATCATQRLANFLVHSSNNFGPK(Y‑shaped‑mPEG40KD)LPPTNVGSNTY-NH2 (ends and bridges not checked, also called Compound 31) [Cmpd 31, [K^26(Y-shaped-mPEG40KD)]-Cmpd 12] | 2.56 | 132 | 1130 |
| KCNTATCATQRLANFLVRSSNNLGPVLPPTNVGSNTY-NH2 (ends and bridges not checked, also called Compound 1) [Cmpd 1] |  | 0.1 |  |
